Key:
[1] = target: T1, human Glycoprotein A Repetitions Predominant (GARP) (human, UniProt Q14392 20-662); assay: immunoprecipitation from L1.2 transfectant lysates, blot
T1 construct: whole, on cells; tested in cell lysates; also called LRRC32; FLAG-tagged GARP
T1 sequence (looked up): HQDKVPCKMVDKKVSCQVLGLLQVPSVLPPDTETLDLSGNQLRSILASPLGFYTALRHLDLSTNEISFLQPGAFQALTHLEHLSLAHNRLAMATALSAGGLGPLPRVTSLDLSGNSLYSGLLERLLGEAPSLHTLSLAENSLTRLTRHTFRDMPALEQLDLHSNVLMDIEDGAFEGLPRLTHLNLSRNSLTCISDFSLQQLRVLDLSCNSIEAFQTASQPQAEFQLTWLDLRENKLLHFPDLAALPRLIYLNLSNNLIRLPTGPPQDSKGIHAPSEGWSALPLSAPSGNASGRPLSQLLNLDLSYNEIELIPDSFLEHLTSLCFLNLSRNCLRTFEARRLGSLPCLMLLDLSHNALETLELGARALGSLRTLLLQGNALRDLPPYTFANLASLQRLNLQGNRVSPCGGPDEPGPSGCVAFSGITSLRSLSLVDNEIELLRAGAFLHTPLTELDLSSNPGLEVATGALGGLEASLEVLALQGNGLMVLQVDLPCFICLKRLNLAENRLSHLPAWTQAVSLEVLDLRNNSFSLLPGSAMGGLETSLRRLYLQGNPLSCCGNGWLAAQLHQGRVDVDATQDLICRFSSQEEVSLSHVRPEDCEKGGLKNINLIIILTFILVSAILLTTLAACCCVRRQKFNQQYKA
Description: Cell surface expression of FLAG-LRRC33, FLAG-33-32-X1, and FLAG-33-32-X5 were measured using FACS. Numbers show the MFI (mean fluorescence intensity). (B, C) The specificity of anti-LRRC33 antibody.
Anti-LRRC33 mAb was generated by immunizing Lac33^{-/-} mice with L1.2 cells that stably express the 33-32-X1 chimera on the cell surface. Hybridoma supernatants were screened by immunofluorescence flow cytometry (FACS) and an LRRC33 positive hybridoma was identified. This anti-LRRC33 mAb only recognizes human LRRC33, not GARP, in L1.2 transfectants by immunoprecipitates (IP) (FIG. 8B, line 2, 3).
After 48 hours of transfection, cells were collected and lysed in IP lysis buffer (50 mM Tris pH7.4, 150 mM NaCl, 2 mM EDTA, 1% NP-40), which was supplemented with a protease inhibitor cocktail (Roche) and subjected to western blot analysis or were used for immunoprecipitation with the indicated antibody. Performed as described previously {Wang et al, 2012}. L1.2 cells were transfected with indicated plasmid using electroporation. […]

mouse LRRC33 = target: T2, mouse LRRC33 (mouse, UniProt Q8BMT4 20-693, limits assumed); assay: immunoprecipitation from 293T transfectant lysates, blot
T2 construct: also called mouse LRRC33 complexes
T2 sequence (looked up): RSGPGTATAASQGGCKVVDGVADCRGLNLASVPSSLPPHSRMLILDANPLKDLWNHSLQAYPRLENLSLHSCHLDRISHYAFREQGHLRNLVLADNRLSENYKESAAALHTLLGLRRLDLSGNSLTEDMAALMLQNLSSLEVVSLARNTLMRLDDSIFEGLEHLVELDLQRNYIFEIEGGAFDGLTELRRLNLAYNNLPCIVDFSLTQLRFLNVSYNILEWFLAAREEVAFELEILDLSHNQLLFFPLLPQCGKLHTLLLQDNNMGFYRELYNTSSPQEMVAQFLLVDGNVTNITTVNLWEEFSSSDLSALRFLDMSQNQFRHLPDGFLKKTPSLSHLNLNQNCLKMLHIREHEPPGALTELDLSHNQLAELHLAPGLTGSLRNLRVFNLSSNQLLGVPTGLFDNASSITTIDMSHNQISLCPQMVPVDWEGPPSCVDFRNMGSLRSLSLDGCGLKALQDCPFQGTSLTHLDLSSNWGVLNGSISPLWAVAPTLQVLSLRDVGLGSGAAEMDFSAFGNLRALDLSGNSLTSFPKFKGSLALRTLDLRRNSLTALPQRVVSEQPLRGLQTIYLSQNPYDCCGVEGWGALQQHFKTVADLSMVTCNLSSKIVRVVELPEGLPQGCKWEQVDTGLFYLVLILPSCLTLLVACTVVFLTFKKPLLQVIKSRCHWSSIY

B1: anti-LRRC33 monoclonal antibody (mAb) (antibody, V domains shown)
VH: EFQLQQSGPELVKPGASVKMSCKASGYSFTDSYMDWVKQSNGKTLEWIGLINPKYGTTTYNQKFKGKATLTVDQSSSTAYMQLNSLTSEDSAVYFCASLYYDYSAWFAYWGQGTLVTVSA
VL: QAVVTQESALTTSPGETVTLTCRSSTGAVTTSNYANWVQEKPDHLFTGLIGGTNNRAPGVPARFSGSLIGDKAALIITGAQTEDEAIYFCGLWFSNRWVFGGGTKLTVV
notes: Mouse hybridoma mAb raised in Lrrc33-/- mice against L1.2 cells expressing the 33-32-X1 chimera; also called anti-LRRC33 mAb; anti-LRRC33 antibody
B1: no binding [1]; no binding (mouse LRRC33).
